Legend:
[1] = system: PBMCs from participants mid-treatment for ATB; test: Proteome-wide peptide library screen: ex vivo IFNγ and IL-17 Fluorospot, positive pools deconvoluted to individual epitopes; type: cell-based, human; details: n=21
[2] = system: PBMCs from ATB participants; test: Fluorospot screen of 517 overlapping 15-mer peptides spanning TB vaccine candidate and IGRA antigens; type: cell-based, human; details: overlapping 15-mers; IGRA+ data from previous study

Rv3874: Mtb IGRA antigen, tested as peptides
antigen recognition in the proteome-wide screen [1]: most frequently recognized
antigen recognition in ATB (n=21) compared with healthy IGRA+ participants (n=63) [2]: most frequently recognized

B1: Rv0288: Mtb antigen, TB vaccine candidate antigen, tested as peptides (protein, UniProt P9WNK3 1-96, looked up)
ESAT-6-like protein EsxH: MSQIMYNYPAMLGHAGDMAGYAGTLQSLGAEIAVEQAALQSAWQGDTGITYQAWQAQWNQAMEDLVRAYHAMSSTHEANTMAMMARDTAEAAKWGG
modifications: tested as peptides
antigen recognition in the proteome-wide screen [1]: most frequently recognized
antigen recognition in ATB (n=21) compared with healthy IGRA+ participants (n=63) [2]: most frequently recognized

B2: Rv3615c: Mtb antigen included in the ESAT-6 free IGRA test (protein, UniProt P9WJD7 2-103, looked up)
ESX-1 secretion-associated …: TENLTVQPERLGVLASHHDNAAVDASSGVEAAAGLGESVAITHGPYCSQFNDTLNVYLTAHNALGSSLHTAGVDLAKSLRIAAKIYSEADEAWRKAIDGLFT
antigen recognition in the proteome-wide screen [1]: most frequently recognized

B3: Rv1196: Mtb vaccine candidate antigen, tested as peptides (protein, UniProt L7N675 1-391, looked up)
PPE family protein PPE18: MVDFGALPPEINSARMYAGPGSASLVAAAQMWDSVASDLFSAASAFQSVVWGLTVGSWIGSSAGLMVAAASPYVAWMSVTAGQAELTAAQVRVAAAAYETAYGLTVPPPVIAENRAELMILIATNLLGQNTPAIAVNEAEYGEMWAQDAAAMFGYAAATATATATLLPFEEAPEMTSAGGLLEQAAAVEEASDTAAANQLMNNVPQALQQLAQPTQGTTPSSKLGGLWKTVSPHRSPISNMVSMANNHMSMTNSGVSMTNTLSSMLKGFAPAAAAQAVQTAAQNGVRAMSSLGSSLGSSGLGGGVAANLGRAASVGSLSVPQAWAAANQAVTPAARALPLTSLTSAAERGPGQMLGGLPVGQMGARAGGGLSGVLRVPPRPYVMPHSPAAG
modifications: tested as peptides
antigen recognition in ATB (n=21) compared with healthy IGRA+ participants (n=63) [2]: most frequently recognized

— patent US20260115269A1, “MYC[…] CELL EPITOPES, MEGAPOOLS AND USES THEREOF” (La Jolla Institute for Immunology, priority 2022, published 2026)
